Results on three molecules are retold here after PMC4754349, “Tripartite assembly of RND multidrug efflux pumps” (Nature Communications, 2016).

Sequences and labels used below:
B1: MexB reconstituted into nanodiscs (MexB–ND) (natural protein)
chain: MSKFFIDRPIFAWVIALVIMLAGGLSILSLPVNQYPAIAPPAIAVQVSYPGASAETVQDTVVQVIEQQMNGIDNLRYISSESNSDGSMTITVTFEQGTDPDIAQVQVQNKLQLATPLLPQEVQRQGIRVTKAVKNFLMVVGVVSTDGSMTKEDLSNYIVSNIQDPLSRTKGVGDFQVFGSQYSMRIWLDPAKLNSYQLTPGDVSSAIQAQNVQISSGQLGGLPAVKGQQLNATIIGKTRLQTAEQFENILLKVNPDGSQVRLKDVADVGLGGQDYSINAQFNGSPASGIAIKLATGANALDTAKAIRQTIANLEPFMPQGMKVVYPYDTTPVVSASIHEVVKTLGEAILLVFLVMYLFLQNFRATLIPTIAVPVVLLGTFGVLAAFGFSINTLTMFGMVLAIGLLVDDAIVVVENVERVMAEEGLSPREAARKSMGQIQGALVGIAMVLSAVFLPMAFFGGSTGVIYRQFSITIVSAMALSVIVALILTPALCATMLKPIEKGDHGEHKGGFFGWFNRMFLSTTHGYERGVASILKHRAPYLLIYVVIVAGMIWMFTRIPTAFLPDEDQGVLFAQVQTPPGSSAERTQVVVDSMREYLLEKESSSVSSVFTVTGFNFAGRGQSSGMAFIMLKPWEERPGGENSVFELAKRAQMHFFSFKDAMVFAFAPPSVLELGNATGFDLFLQDQAGVGHEVLLQARNKFLMLAAQNPALQRVRPNGMSDEPQYKLEIDDEKASALGVSLADINSTVSIAWGSSYVNDFIDRGRVKRVYLQGRPDARMNPDDLSKWYVRNDKGEMVPFNAFATGKWEYGSPKLERYNGVPAMEILGEPAPGLSSGDAMAAVEEIVKQLPKGVGYSWTGLSYEERLSGSQAPALYALSLLVVFLCLAALYESWSIPFSVMLVVPLGVIGALLATSMRGLSNDVFFQVGLLTTIGLSAKNAILIVEFAKELHEQGKGIVEAAIEACRMRLRPIVMTSLAFILGVVPLAISTGAGSGSQHAIGTGVIGGMVTATVLAIFWVPLFYVAVSTLFKDEASKQQASVEKGQ
notes: MexB, inner membrane RND transporter of Pseudomonas aeruginosa; called native; One trimer in each nanodisc (POPC, MSP1E3D1); also called RND; source: E. coli C43ΔacrB, purified (HisTrap HP, gel filtration Superose 6), reconstituted into POPC/MSP1E3D1 nanodiscs
B2: lipidated MexA (natural protein)
chain: CGKSEAPPPAQTPEVGIVTLEAQTVTLNTELPGRTNAFRIAEVRPQVNGIILKRLFKEGSDVKAGQQLYQIDPATYEADYQSAQANLASTQEQAQRYKLLVADQAVSKQQYADANAAYLQSKAAVEQARINLRYTKVLSPISGRIGRSAVTEGALVTNGQANAMATVQQLDPIYVDVTQPSTALLRLRRELASGQLERAGDNAAKVSLKLEDGSQYPLEGRLEFSEVSVDEGTGSVTIRAVFPNPNNELLPGMFVHAQLQEGVKQKAILAPQQGVTRDLKGQATALVVNAQNKVELRVIKADRVIGDKWLVTEGLNAGDKIITEGLQFVQPGVEVKTVPAKNVASAQKADAAPAKTDSKG
modifications: lipidated (palmitoylation of an N-terminal cysteinyl residue)
notes: MexA, periplasmic membrane fusion protein of Pseudomonas aeruginosa, native lipidated form, 39 kDa monomer; also called native lipid-modified MFP; source: E. coli C43ΔacrB, purified (HisTrap HP, gel filtration Superose 6), in 0.03% DDM
B3: OprM reconstituted into nanodiscs (OprM–ND) (natural protein)
chain: CSLIPDYQRPEAPVAAAYPQGQAYGQNTGAAAVPAADIGWREFFRDPQLQQLIGVALENNRDLRVAALNVEAFRAQYRIQRADLFPRIGVDGSGTRQRLPGDLSTTGSPAISSQYGVTLGTTAWELDLFGRLRSLRDQALEQYLATEQAQRSAQTTLVASVATAYLTLKADQAQLQLTKDTLGTYQKSFDLTQRSYDVGVASALDLRQAQTAVEGARATLAQYTRLVAQDQNALVLLLGSGIPANLPQGLGLDQTLLTEVPAGLPSDLLQRRPDILEAEHQLMAANASIGAARAAFFPSISLTANAGTMSRQLSGLFDAGSGSWLFQPSINLPIFTAGSLRASLDYAKIQKDINVAQYEKAIQTAFQEVADGLAARGTFTEQLQAQRDLVKASDEYYQLADKRYRTGVDNYLTLLDAQRSLFTAQQQLITDRLNQLTSEVNLYKALGGGWNQQTVTQQQTAKKEDPQA
notes: OprM, outer membrane factor of Pseudomonas aeruginosa; called native; One trimer in each nanodisc (POPC, MSP1D1); also called OMF; source: E. coli C43ΔacrB, purified (HisTrap HP, gel filtration Superose 6), reconstituted into POPC/MSP1D1 nanodiscs

Series [1] concerns the molecule itself. In words: negative-stain electron microscopy, single-particle analysis; nanodisc-reconstituted RND and OMF mixed with lipidated MFP (1:1:10, or SEC-purified complex), stained with 2% uranyl acetate on carbon-coated grids; reference-free two-dimensional class averages (SPIDER).
Series [2] deals with B3. In words: native gel or EMSA; native PAGE, 4–15% gradient gel, Tris-Glycine running buffer, silver stained; nanodisc-reconstituted MexB and OprM mixed 1:1, with or without lipidated MexA (1:1:10 molar ratio). As to conditions: both partners purified.
Series [3] deals with B1. The description is as above. The conditions noted are these: both partners purified.

In the case of B1, the binding result in series [1] was “binds”.

Regarding B2, the binding result in series [2] and in series [3] was “binds” throughout.

Take B3: in series [1], the binding result is listed as “binds”.
